Earlier results in patent US7482329B2, “Single domain TDF-related compounds and analogs thereof” (Thrasos Therapeutics, priority 2002, dated 2009).

Assays:
[1] = test system: end stage renal failure in a remnant kidney; conditions: rats, administered systemically, remnant kidney (5/6 nephrectomy); cited from earlier work
[2] = test system: unilateral ureteral obstruction; conditions: rats, administered systemically, UUO; cited from earlier work

B1: TDF-1: TDF-1 (BMP-7 or OP-1), bone morphogenetic protein-7; unlabeled control ligand in the binding and cell assays (protein)
chain: STGSKQRSQNRSKTPKNQEALRMANVAENSSSDQRQACKKHELYVSFRDLGWQDWIIAPEGYAAYYCEGECAFPLNSYMNATNHAIVQTLVHFINPETVPKPCCAPTQLNAISVLYFDDSSNVILKKYRNMVVRACGCH
progression of end stage renal failure [1]: halts the progression of end stage renal failure | prophylaxis in unilateral ureteral obstruction [2]: short term prophylaxis
